From article doi:10.1101/772699 (bioRxiv, 2019)

B1: K-domain of SEP3 (SEP3^75-178) (domain or fragment, A. thaliana, UniProt O22456-1 75-178, looked up)
chain: YGAPEPNVPSREALAVELSSQQEYLKLKERYDALQRTQRNLLGEDLGPLSTKELESLERQLDSSLKQIRALRTQFMLDQLNDLQSKERMLTETNKTLRLRLADG

Experiments:
[1] = target: SAP54 (purified, secreted part) (Aster Yellows-Witches' Broom phytoplasma (Candidatus Phytoplasma asteris strain AY-WB)); assay: dynamic light scattering
dynamic light scattering = target: the molecule itself; assay: dynamic light scattering

Row | Molecule | stoichiometry N [1] | stoichiometry N (dynamic light scattering)
1 | SAP54 (purified, secreted part) (natural protein) | 2 | 
2 | B1 |  | 4
